As a reminder, the Kd is the constant that tells how readily two partners part at equilibrium. A lower Kd goes with a tighter complex.

The assay concerns the target Ub-Lys-TAMRA (UniProt P0CG48 1-76, Ub is isopeptide-linked to a TAMRA-labeled Lys-Gly dipeptide (modification at the Ub C-terminus)). Put plainly: fluorescence polarisation. (In general: Polarisation of emitted light reports the rotation of a fluorescent probe.)

B1: RNF114 (wild type, full length) (enzyme)
chain: MAAQQRDCGGAAQLAGPAAEADPLGRFTCPVCLEVYEKPVQVPCGHVFCSACLQECLKPKKPVCGVCRSALAPGVRAVELERQIESTETSCHGCRKNFFLSKIRSHVATCSKYQNYIMEGVKATIKDASLQPRNVPNRYTFPCPYCPEKNFDQEGLVEHCKLFHSTDTKSVVCPICASMPWGDPNYRSANFREHIQRRHRFSYDTFVDYDVDEEDMMNQVLQRSIIDQ
Molecule B1 yielded a Kd of roughly 20 µM.

The values above are taken from publication PMC12132378 (bioRxiv, 2025).
